According to patent publication US20260184814A1, “BROADLY NE[…] INFLUENZA NEURAMINIDASE” (priority 2022, published 2026):
Where “and” joins values, the source holds several entries; their conditions need not be identical. Equal entries are not always repeated. Where two headings read alike, the source gives them in different places.

Tests used:
[1] = target: N1; assay: Bio-Layer Interferometry (BLI)
[2] = target: N2; assay: Bio-Layer Interferometry (BLI)
[3] = target: N9; assay: Bio-Layer Interferometry (BLI)
[4] = target: N1; assay: Bio-Layer Interferometry (BLI); printed as kdis
[5] = target: N2; assay: Bio-Layer Interferometry (BLI); printed as kdis
[6] = target: N9; assay: Bio-Layer Interferometry (BLI); printed as kdis
[7] = target: B/MALAYSIA/3120318925/2013 (YAMAGATA) (Influenza B virus); assay: flow cytometry, NA transiently expressed on Expi-CHO cells
[8] = target: B/WISCONSIN/1/2010 (YAMAGATA) (Influenza B virus); assay: as above
[9] = target: IBV neuraminidase from B/Lee/10/1940 (Ancestral) (Influenza B virus B/Lee/10/1940) (UniProt P03474); assay: as above
[10] = target: IBV neuraminidase from B/Malaysia/2506/2004 (Victoria) (Influenza B virus B/Malaysia/2506/2004); assay: as above
[11] = target: IBV neuraminidase from B/Yamanashi/166/1998 (Yamagata) (Influenza B virus B/Yamanashi/166/1998); assay: as above
[12] = target: N1 neuraminidase from A/Stockholm/18/2007 (Influenza A virus A/Stockholm/18/2007); assay: as above
[13] = target: N2 A/HONG KONG/68 (Influenza A virus); assay: as above
[14] = target: N2 neuraminidase from A/Leningrad/134/17/57 (Influenza A virus A/Leningrad/134/17/57) (UniProt Q67214); assay: as above
[15] = target: N2 neuraminidase from A/Washington/01/2007 (Influenza A virus A/Washington/01/2007); assay: as above
[16] = target: N3 neuraminidase from A/Canada/rv504/2004 (Influenza A virus A/Canada/rv504/2004); assay: as above
[17] = target: N4 A/MALLARD DUCK/…/30/2011 (Influenza A virus); assay: as above
[18] = target: N5 A/AQUATIC BIRD/KOREA/CN5/2009 (Influenza A virus); assay: as above
[19] = target: N6 neuraminidase from A/swine/Ontario/01911/1/99 (Influenza A virus A/swine/Ontario/01911/1/99); assay: as above
[20] = target: N7 neuraminidase from A/Netherlands/078/03 (Influenza A virus A/Netherlands/078/03); assay: as above
[21] = target: N8 A/HARBOR SEAL/NEW …/179629/2011 (Influenza A virus); assay: as above
[22] = target: N9 neuraminidase from A/Anhui/1/2013 (Influenza A virus A/Anhui/1/2013 (H7N9)); assay: as above
[23] = target: human FcγRIIIa (F158 allele) (human) (UniProt P08637)
[24] = target: human FcγRIIIa (V158 allele) (human) (UniProt P08637)
[25] = target: human FcγRIIa (H131 allele) (human) (UniProt P12318)
[26] = target: human FcγRIIb (human) (UniProt P31994)
[27] = target: human FcγRIIIa (F158 allele) (human) (UniProt P08637); assay: MSD
[28] = target: human FcγRIIIa (V158 allele) (human) (UniProt P08637); assay: MSD
[29] = target: human FcγRIIIb (human) (UniProt O75015); assay: MSD
[30] = target: human FcγRIIa (H131 allele) (human) (UniProt P12318); assay: MSD
[31] = target: human FcγRIIa (R131 allele) (human) (UniProt P12318); assay: MSD
[32] = target: human FcγRIIb (human) (UniProt P31994); assay: MSD
[33] = target: human C1q (human) (UniProt P02745); assay: MSD [cont'd]
[34] = target: human FcRn (human) (UniProt P55899); assay: MSD [cont'd]
[35] = target: human FcγRIIIa (F158 allele) (human) (UniProt P08637); assay: MSD [cont'd]
[36] = target: human FcγRIIIa (V158 allele) (human) (UniProt P08637); assay: MSD [cont'd]
[37] = target: human FcRn (human) (UniProt P55899); assay: MSD, pH 6 [cont'd]
[38] = target: human FcγRIIb (human) (UniProt P31994); assay: Table B summary, vs fucosylated wild-type human IgG1
[39] = target: N1 neuraminidase from A/Swine/Jiangsu/J004/2018 (Influenza A virus A/Swine/Jiangsu/J004/2018 (H1N1))
[40] = target: N1 neuraminidase from A/Swine/Jiangsu/J004/2018 (Influenza A virus A/Swine/Jiangsu/J004/2018 (H1N1)); remark: listed apart in the source
[41] = target: N2 neuraminidase from A/South Australia/34/2019 (Influenza A virus A/South Australia/34/2019)
[42] = target: N2 neuraminidase from A/South Australia/34/2019 (Influenza A virus A/South Australia/34/2019); remark: listed apart in the source
[43] = target: N1 neuraminidase from A/Swine/Jiangsu/J004/2018 (Influenza A virus A/Swine/Jiangsu/J004/2018 (H1N1)); remark: listed apart in the source
[44] = target: N9 NA (FIGS. 96A-96C); assay: Bio-Layer Interferometry (BLI)
[45] = target: B/BRISBANE/60/2008 (VICTORIA) (Influenza B virus); assay: flow cytometry, NA transiently expressed on Expi-CHO cells
[46] = target: NA-9; assay: BLI, antibody loaded on the sensor (Loading Sample ID: FNI9), NA-9 as sample
[47] = target: N1 neuraminidase from A/Swine/Jiangsu/J004/2018 (Influenza A virus A/Swine/Jiangsu/J004/2018 (H1N1)); assay: flow cytometry, cells infected with A/Swine/Jiangsu/J004/2018, antibody 2 µg/ml
[48] = target: N1 neuraminidase from A/Swine/Jiangsu/J004/2018 (Influenza A virus A/Swine/Jiangsu/J004/2018 (H1N1)); assay: flow cytometry, cells infected with A/Swine/Jiangsu/J004/2018, antibody 10 µg/ml
[49] = target: N1 neuraminidase from A/Swine/Jiangsu/J004/2018 (Influenza A virus A/Swine/Jiangsu/J004/2018 (H1N1)); assay: flow cytometry, cells infected with A/Swine/Jiangsu/J004/2018, antibody 50 µg/ml
[50] = target: human FcγRIIIa (F158 allele) (human) (UniProt P08637); remark: listed apart in the source
[51] = target: human FcγRIIIa (V158 allele) (human) (UniProt P08637); remark: listed apart in the source
[52] = target: human FcγRIIIb (human) (UniProt O75015); assay: MSD [cont'd]
[53] = target: human FcγRIIa (H131 allele) (human) (UniProt P12318); assay: MSD [cont'd]
[54] = target: human FcγRIIa (R131 allele) (human) (UniProt P12318); assay: MSD [cont'd]
[55] = target: human FcγRIIb (human) (UniProt P31994); assay: MSD [cont'd]

human FcγRIIb (human), sequence (P31994 43-217 limits assumed): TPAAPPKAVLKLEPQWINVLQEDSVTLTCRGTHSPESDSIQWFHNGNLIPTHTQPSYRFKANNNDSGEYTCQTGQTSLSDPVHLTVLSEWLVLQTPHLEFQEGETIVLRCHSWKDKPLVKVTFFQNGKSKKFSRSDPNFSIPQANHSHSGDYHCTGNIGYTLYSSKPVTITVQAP
human FcγRIIIa (F158 allele) (human), sequence (P08637 17-208 limits assumed): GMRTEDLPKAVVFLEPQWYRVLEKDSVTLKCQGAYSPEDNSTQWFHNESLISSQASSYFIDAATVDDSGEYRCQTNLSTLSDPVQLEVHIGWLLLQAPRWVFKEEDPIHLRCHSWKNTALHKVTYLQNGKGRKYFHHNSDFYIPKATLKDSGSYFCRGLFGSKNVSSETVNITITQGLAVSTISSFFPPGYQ
human C1q (human), sequence (P02745 23-245 limits assumed, chain 1 of 3): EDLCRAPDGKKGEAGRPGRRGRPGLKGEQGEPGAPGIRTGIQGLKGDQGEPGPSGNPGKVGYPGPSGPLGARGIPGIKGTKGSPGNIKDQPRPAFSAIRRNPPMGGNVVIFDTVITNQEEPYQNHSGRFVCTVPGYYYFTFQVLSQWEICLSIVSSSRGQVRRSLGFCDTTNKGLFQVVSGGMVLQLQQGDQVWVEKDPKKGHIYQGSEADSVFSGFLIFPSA
human C1q (human), sequence (P02746 28-253 limits assumed, chain 2 of 3, further chain): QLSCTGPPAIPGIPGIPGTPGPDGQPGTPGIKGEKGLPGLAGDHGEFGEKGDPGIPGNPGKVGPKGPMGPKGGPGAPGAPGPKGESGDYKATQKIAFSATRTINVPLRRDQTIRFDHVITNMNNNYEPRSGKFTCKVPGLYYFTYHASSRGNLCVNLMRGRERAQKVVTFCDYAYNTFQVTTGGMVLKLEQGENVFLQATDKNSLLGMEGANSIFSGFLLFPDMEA
human C1q (human), sequence (P02747 29-245 limits assumed, chain 3 of 3, further chain): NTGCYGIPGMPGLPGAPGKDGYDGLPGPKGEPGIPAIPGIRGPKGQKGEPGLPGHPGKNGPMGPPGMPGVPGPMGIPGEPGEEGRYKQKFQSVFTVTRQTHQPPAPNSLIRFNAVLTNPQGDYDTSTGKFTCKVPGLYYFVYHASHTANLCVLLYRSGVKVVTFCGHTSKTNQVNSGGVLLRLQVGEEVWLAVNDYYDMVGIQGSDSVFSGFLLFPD
human FcRn (human), sequence (P55899 24-297 limits assumed, chain 1 of 2): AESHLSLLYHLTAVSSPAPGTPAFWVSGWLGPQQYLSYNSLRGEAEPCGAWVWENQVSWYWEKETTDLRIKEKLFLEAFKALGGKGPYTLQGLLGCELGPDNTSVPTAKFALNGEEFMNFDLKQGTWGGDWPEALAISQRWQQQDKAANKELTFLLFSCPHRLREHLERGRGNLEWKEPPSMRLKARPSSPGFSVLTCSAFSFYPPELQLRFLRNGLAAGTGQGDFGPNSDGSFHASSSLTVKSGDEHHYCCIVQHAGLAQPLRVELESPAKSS
human FcRn (human), sequence (chain, as listed by the source limits assumed, chain 2 of 2): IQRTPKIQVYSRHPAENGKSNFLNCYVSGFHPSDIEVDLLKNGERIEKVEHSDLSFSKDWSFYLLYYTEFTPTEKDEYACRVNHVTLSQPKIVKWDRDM
human FcγRIIIb (human), sequence (O75015 17-200 limits assumed): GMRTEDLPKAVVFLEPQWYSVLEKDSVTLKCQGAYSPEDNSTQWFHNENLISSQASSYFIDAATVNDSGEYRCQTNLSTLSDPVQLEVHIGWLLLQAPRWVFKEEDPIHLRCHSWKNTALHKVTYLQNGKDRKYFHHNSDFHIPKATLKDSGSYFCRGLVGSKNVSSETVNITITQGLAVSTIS
human FcγRIIa (H131 allele) (human), sequence (P12318 34-218 limits assumed): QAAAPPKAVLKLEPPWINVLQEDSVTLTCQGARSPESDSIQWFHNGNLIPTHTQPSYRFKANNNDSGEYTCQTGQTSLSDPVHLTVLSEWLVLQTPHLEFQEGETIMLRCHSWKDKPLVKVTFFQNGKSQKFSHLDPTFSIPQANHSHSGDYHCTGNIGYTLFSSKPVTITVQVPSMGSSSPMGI
human FcγRIIa (R131 allele) (human), sequence (P12318 34-218 H167R limits assumed): as the sequence (P12318 34-218 limits assumed) above, with H134R counted along it
human FcγRIIIa (V158 allele) (human), sequence (P08637 17-208 F176V limits assumed): as the sequence (P08637 17-208 limits assumed) above, with F160V counted along it

Substance: 1G01 (antibody)
- Kd [1]: 0.868 nM
- kon [1]: 55100 M⁻¹ s⁻¹
- Kd [2]: < 0.001 nM
- kon [2]: 40200 M⁻¹ s⁻¹
- Kd [3]: < 0.001 nM
- kon [3]: 106000 M⁻¹ s⁻¹
- koff [4]: 4.79e-05 s⁻¹
- koff [5]: < 1e-07 s⁻¹
- koff [6]: < 1e-07 s⁻¹
- lowest concentration at which binding was observed (EC50 scale class) [7]: 10 µg/mL
- lowest concentration at which binding was observed (EC50 scale class) [8]: 2 µg/mL
- lowest concentration at which binding was observed (EC50 scale class) [9]: 10 µg/mL
- lowest concentration at which binding was observed (EC50 scale class) [10]: 0.4 µg/mL
- lowest concentration at which binding was observed (EC50 scale class) [11]: 2 µg/mL
- lowest concentration at which binding was observed (EC50 scale class) [12]: 0.4 µg/mL
- lowest concentration at which binding was observed (EC50 scale class) [13]: 0.4 µg/mL
- lowest concentration at which binding was observed (EC50 scale class) [14]: 0.4 µg/mL
- lowest concentration at which binding was observed (EC50 scale class) [15]: 0.4 µg/mL
- lowest concentration at which binding was observed (EC50 scale class) [16]: 0.4 µg/mL
- lowest concentration at which binding was observed (EC50 scale class) [17]: 0.4 µg/mL
- lowest concentration at which binding was observed (EC50 scale class) [18]: 2 µg/mL
- lowest concentration at which binding was observed (EC50 scale class) [19]: 0.4 µg/mL
- lowest concentration at which binding was observed (EC50 scale class) [20]: 0.4 µg/mL
- lowest concentration at which binding was observed (EC50 scale class) [21]: 0.4 µg/mL
- lowest concentration at which binding was observed (EC50 scale class) [22]: 0.4 µg/mL

Substance: IgG1 antibody with Fc variant G236A_R292P
- FcγR reporter signaling, fold-change vs wt [cont'd] [23]: 0.29 fold
- FcγR reporter signaling, fold-change vs wt [cont'd] [24]: 0.54 fold
- FcγR reporter signaling, fold-change vs wt [cont'd] [25]: 1.47 fold
- FcγR reporter signaling, fold-change vs wt [cont'd] [26]: 0.15 fold
- fold-change vs wt [27]: 0.6 fold
- fold-change vs wt [28]: 0.41 fold
- fold-change vs wt [29]: 0.95 fold
- fold-change to WT Fc [30]: 5.65 fold
- fold-change vs wt [30]: 5.65 fold
- fold-change to WT Fc [31]: 1.04 fold
- fold-change vs wt [31]: 1.04 fold
- fold-change to WT Fc [32]: 0.446 fold
- fold-change vs wt [32]: 0.45 fold
- fold-change to WT Fc [33]: 0.125 fold
- fold-change vs wt [33]: 0.13 fold
- fold-change vs wt [34]: 0.81 fold
- fold-change to WT Fc [35]: 0.603 fold
- fold-change to WT Fc [36]: 0.411 fold
- fold-change to WT Fc [37]: 0.809 fold
- fold-change in binding vs fucosylated wild-type human IgG1 [38]: 0.5 fold

Substance: IgG1 antibody with Fc variant G236S_G420V_G446E_L309T
- FcγR reporter signaling, fold-change vs wt [cont'd] [23]: 0.03 fold
- FcγR reporter signaling, fold-change vs wt [cont'd] [24]: 0.06 fold
- FcγR reporter signaling, fold-change vs wt [cont'd] [25]: 2.56 fold
- FcγR reporter signaling, fold-change vs wt [cont'd] [26]: 0.22 fold
- fold-change vs wt [27]: 0.32 fold
- fold-change vs wt [28]: 0.09 fold
- fold-change vs wt [29]: 0.56 fold
- fold-change vs wt [30]: 4.85 fold
- fold-change vs wt [31]: 1.47 fold
- fold-change vs wt [32]: 0.39 fold
- fold-change vs wt [33]: 0.21 fold
- fold-change vs wt [34]: 0.77 fold
- fold-change in binding vs fucosylated wild-type human IgG1 [38]: 0.5 fold

Substance: FNI9 (antibody)
- % Alexa 647-A+ cells [39]: 84% and 83.5%
- % Alexa 647-A+ cells [40]: 82.1% and 78%
- % Alexa 647-A+ cells [41]: 66.1% and 71.3%
- % Alexa 647-A+ cells [42]: 57% and 68.8%
- % of cells in the Alexa 647-A positive gate [43]: 78%
- Kd [1]: 0.0164 nM
- Kd [2]: < 0.001 nM
- Kd [44]: < 0.001 nM
- Kd [3]: < 0.001 nM
- lowest concentration at which binding was observed (EC50 scale class) [45]: 0.4 µg/mL
- lowest concentration at which binding was observed (EC50 scale class) [7]: 0.4 µg/mL
- lowest concentration at which binding was observed (EC50 scale class) [8]: 0.4 µg/mL
- lowest concentration at which binding was observed (EC50 scale class) [10]: 0.4 µg/mL
- lowest concentration at which binding was observed (EC50 scale class) [11]: 0.4 µg/mL
- lowest concentration at which binding was observed (EC50 scale class) [12]: 0.4 µg/mL
- lowest concentration at which binding was observed (EC50 scale class) [13]: 0.4 µg/mL
- lowest concentration at which binding was observed (EC50 scale class) [16]: 0.4 µg/mL
- lowest concentration at which binding was observed (EC50 scale class) [17]: 0.4 µg/mL
- lowest concentration at which binding was observed (EC50 scale class) [19]: 0.4 µg/mL
- lowest concentration at which binding was observed (EC50 scale class) [20]: 50 µg/mL
- lowest concentration at which binding was observed (EC50 scale class) [21]: 50 µg/mL
- lowest concentration at which binding was observed (EC50 scale class) [22]: 0.4 µg/mL
- Kd [46]: 0.088 nM
- % of cells in the Alexa 647-A positive gate [47]: 82.1%
- % of cells in the Alexa 647-A positive gate [48]: 83.5%
- % of cells in the Alexa 647-A positive gate [49]: 84%

Substance: G236R_L328R-afuc (antibody)
- FcγR reporter signaling, fold to wt-fucose [cont'd] [50]: 0.05 fold
- FcγR reporter signaling, fold to wt-fucose [cont'd] [51]: 0.2 fold
- fold-change (reference not given) [32]: 0.2 fold
- fold to wt-fucose [34]: 1.09 fold
- fold to wt-fucose [35]: 0.33 fold
- fold to wt-fucose [36]: 0.07 fold
- fold to wt-fucose [52]: 0.6 fold
- fold to wt-fucose [53]: 0.16 fold
- fold to wt-fucose [54]: 0.24 fold
- fold to wt-fucose [55]: 0.17 fold
